Reference: patent publication US20240360223A1 (DRAGONFLY THERAPEUTICS, published 2024)
Where “and” joins values, the source holds several entries; their conditions need not be identical. Identical values can stand only once.

Assays:
[1] = target: T1, cynomolgus monkey BAFF-R expressed on cells (cynomolgus monkey); assay: flow cytometry, CHO-cBAFF-R cells
T1 construct: whole, on cells; also called cBAFF-R; cynoBAFF-R

[2] = target: T2, human BAFF-R expressed on cells (human, UniProt Q96RJ3 1-184); assay: flow cytometry on hBAFFR-CHO cells, anti-human Fc-g-PE, fold over background
T2 construct: Cell surface BAFF-R, endogenous on B cell lines and primary B cells or overexpressed on isogenic CHO cells; also called hBAFF-R; hBAFF-R-CHO

human CD16a F158 [3] = target: T3, human CD16a F158 (human, UniProt P08637 17-208); assay: SPR, recombinant receptor; reference trastuzumab
T3 sequence (P08637 17-208 limits assumed): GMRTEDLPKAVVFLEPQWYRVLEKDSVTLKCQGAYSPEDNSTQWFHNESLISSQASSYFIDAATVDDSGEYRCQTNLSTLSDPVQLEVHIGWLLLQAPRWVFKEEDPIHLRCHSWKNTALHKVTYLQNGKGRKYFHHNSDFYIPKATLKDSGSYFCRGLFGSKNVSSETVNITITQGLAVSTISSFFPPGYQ

human CD32b [4] = target: T4, human CD32b (human, UniProt P31994 46-217, limits assumed); assay: SPR, recombinant receptor; reference trastuzumab
T4 construct: also called FcγRIIb
T4 sequence (looked up): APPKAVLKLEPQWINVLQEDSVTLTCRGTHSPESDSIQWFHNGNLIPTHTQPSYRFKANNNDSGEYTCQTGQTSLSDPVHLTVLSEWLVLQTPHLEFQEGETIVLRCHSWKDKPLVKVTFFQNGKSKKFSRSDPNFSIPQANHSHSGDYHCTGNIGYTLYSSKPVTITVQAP

cynomolgus CD16 [5] = target: T5, cynomolgus CD16 (cynomolgus, UniProt Q8SPW2 17-208, limits assumed); assay: SPR, recombinant receptor; reference trastuzumab
T5 construct: also called Cyno CD16; cynomolgus FcγRIII
T5 sequence (Q8SPW2 17-208 limits assumed): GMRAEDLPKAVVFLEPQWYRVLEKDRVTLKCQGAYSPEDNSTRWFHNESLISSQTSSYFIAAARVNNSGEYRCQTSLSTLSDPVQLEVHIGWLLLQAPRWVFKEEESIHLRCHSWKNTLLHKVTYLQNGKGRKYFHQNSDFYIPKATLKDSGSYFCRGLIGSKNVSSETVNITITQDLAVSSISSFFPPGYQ

human CD16b [6] = target: T6, human CD16b (human, UniProt O75015 17-200, limits assumed); assay: SPR, recombinant receptor; reference trastuzumab
T6 construct: also called FcγRIIIb
T6 sequence (O75015 17-200 limits assumed): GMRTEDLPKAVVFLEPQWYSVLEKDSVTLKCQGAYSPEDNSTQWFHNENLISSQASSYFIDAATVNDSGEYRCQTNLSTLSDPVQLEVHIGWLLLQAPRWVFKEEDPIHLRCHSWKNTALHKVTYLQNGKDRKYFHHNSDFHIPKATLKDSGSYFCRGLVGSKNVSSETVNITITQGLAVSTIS

human CD64 [7] = target: T7, human CD64 (human, UniProt P12314 16-288, limits assumed); assay: SPR, recombinant receptor; reference trastuzumab
T7 construct: also called FcγRI
T7 sequence (P12314 16-288 limits assumed): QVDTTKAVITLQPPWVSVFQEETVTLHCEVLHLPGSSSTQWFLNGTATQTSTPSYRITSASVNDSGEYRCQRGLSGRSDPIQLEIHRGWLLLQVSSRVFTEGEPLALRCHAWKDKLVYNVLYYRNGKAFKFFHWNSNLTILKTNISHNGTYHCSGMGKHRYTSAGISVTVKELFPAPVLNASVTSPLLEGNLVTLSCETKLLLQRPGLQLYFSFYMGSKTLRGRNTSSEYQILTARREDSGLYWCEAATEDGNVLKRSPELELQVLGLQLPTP

human CD16a V158 [8] = target: T8, human CD16a V158 (human, UniProt P08637 17-208); assay: SPR, recombinant receptor; reference trastuzumab
T8 construct: also called hCD16aV; hCD16a V158
T8 sequence (P08637 17-208 F176V limits assumed): as the sequence (P08637 17-208 limits assumed) above, with F160V counted along it

human CD32a R131 [9] = target: T9, human CD32a R131 (human, UniProt P12318 36-218, limits assumed); assay: SPR, recombinant receptor; reference trastuzumab
T9 construct: also called FcγRIIa R131
T9 sequence (looked up): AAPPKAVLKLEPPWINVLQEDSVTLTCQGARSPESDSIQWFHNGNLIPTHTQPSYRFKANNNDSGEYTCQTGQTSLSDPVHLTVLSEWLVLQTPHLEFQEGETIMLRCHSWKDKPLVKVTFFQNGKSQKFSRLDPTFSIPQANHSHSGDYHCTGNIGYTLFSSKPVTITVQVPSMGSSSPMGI

human CD32a H131 [10] = target: T10, human CD32a H131 (human, UniProt P12318 36-218, limits assumed); assay: SPR, recombinant receptor; reference trastuzumab
T10 sequence (looked up): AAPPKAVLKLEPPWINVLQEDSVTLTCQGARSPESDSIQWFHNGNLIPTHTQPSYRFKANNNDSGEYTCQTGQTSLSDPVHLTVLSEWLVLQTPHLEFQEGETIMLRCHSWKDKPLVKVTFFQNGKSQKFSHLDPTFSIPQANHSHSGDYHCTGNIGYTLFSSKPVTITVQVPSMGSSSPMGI

[11] = target: T11, cynomolgus NKG2D (recombinant mFc-tagged dimer) (cynomolgus, UniProt P61252 78-216); assay: SPR, steady state fit
T11 construct: also called cyno NKG2D
T11 sequence (looked up): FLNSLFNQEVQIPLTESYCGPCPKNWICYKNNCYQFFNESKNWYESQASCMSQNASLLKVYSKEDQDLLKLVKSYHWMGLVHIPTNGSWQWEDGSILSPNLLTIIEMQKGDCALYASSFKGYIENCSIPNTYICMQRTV
Description: Two different fits were utilized to obtain the equilibrium affinity data: steady state affinity fit and kinetic fit.

human CD16b [12] = target: T6, human CD16b; assay: SPR, steady state, average
human CD16a F158 [13] = target: T3, human CD16a F158; assay: SPR, summary table
human CD32b [14] = target: T4, human CD32b; assay: SPR, summary table
cynomolgus CD16 [15] = target: T5, cynomolgus CD16; assay: SPR, summary table
human CD16b [16] = target: T6, human CD16b; assay: SPR, summary table
human CD64 [17] = target: T7, human CD64; assay: SPR, summary table
human CD16a V158 [18] = target: T8, human CD16a V158; assay: SPR, summary table
human CD32a R131 [19] = target: T9, human CD32a R131; assay: SPR, summary table
human CD32a H131 [20] = target: T10, human CD32a H131; assay: SPR, summary table
human CD32a R131 [21] = target: T9, human CD32a R131; assay: SPR, steady state, average
human CD16a F158 [22] = target: T3, human CD16a F158; assay: SPR, steady state, average
cynomolgus FcRn = target: T12, cynomolgus FcRn (cynomolgus, UniProt Q8SPV9 24-297; Q8SPW0 21-119); assay: SPR, pH 6.0, steady state; pH 6.0; fourth replicate
T12 construct: also called Cyno FcRn
T12 sequence (Q8SPV9 24-297 limits assumed, chain 1 of 2): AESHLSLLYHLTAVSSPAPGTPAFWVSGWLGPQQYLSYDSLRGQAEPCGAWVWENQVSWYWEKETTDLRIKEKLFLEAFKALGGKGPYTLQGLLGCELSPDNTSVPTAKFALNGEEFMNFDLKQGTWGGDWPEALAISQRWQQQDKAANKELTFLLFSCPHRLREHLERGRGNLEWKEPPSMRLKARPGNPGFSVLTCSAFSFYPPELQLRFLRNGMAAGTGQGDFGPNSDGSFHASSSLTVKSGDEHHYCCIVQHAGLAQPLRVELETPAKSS
T12 sequence (Q8SPW0 21-119 limits assumed, chain 2 of 2): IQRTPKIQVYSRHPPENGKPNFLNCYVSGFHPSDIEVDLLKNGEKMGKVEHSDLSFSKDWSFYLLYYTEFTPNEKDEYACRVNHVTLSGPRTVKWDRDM

human CD16a V158 [23] = target: T8, human CD16a V158; assay: SPR
human CD64 [24] = target: T7, human CD64; assay: SPR, average
Description: Binding analyses as described in this Example were performed using SPR, as described in Example 4.

[25] = target: T2, human BAFF-R expressed on cells; assay: flow cytometry, Jeko-1 cells

- EC50 [1]: 0.96 nM
- Max FOB [1]: 67 fold over background
- EC50 (read off the curve) [2]: ~0.8 nM
- fold difference in binding against trastuzumab (human CD16a F158 [3]): < 3 fold
- fold difference in binding against trastuzumab (human CD32b [4]): < 1.2 fold
- fold difference in binding against trastuzumab (cynomolgus CD16 [5]): < 3 fold
- fold difference in binding against trastuzumab (human CD16b [6]): < 3 fold
- fold difference in binding against trastuzumab (human CD64 [7]): < 3 fold
- fold difference in binding against trastuzumab (human CD16a V158 [8]): < 3 fold
- fold difference in binding against trastuzumab (human CD32a R131 [9]): < 1.2 fold
- fold difference in binding against trastuzumab (human CD32a H131 [10]): < 1.2 fold
- Kd [11]: 618 nM and 630 nM and 589 nM and 600 nM
- Kd (human CD16b [12]): 6900 nM
- Kd (human CD16a F158 [13]): 1350 nM
- Kd (human CD32b [14]): 5900 nM
- Kd (cynomolgus CD16 [15]): 271 nM
- Kd (human CD16b [16]): 6900 nM
- Kd (human CD64 [17]): 3.2 nM
- Kd (human CD16a V158 [18]): 129 nM
- Kd (human CD32a R131 [19]): 1400 nM
- Kd (human CD32a H131 [20]): 1000 nM
- Kd (human CD32a R131 [21]): 1400 nM
- Kd (human CD16a F158 [22]): 1350 nM
- Kd (cynomolgus FcRn): 1000 nM
- koff (human CD16a V158 [23]): 0.014 s⁻¹ and 0.013 s⁻¹
- kon (human CD16a V158 [23]): 110000 M⁻¹ s⁻¹ and 100000 M⁻¹ s⁻¹
- Kd (human CD64 [24]): 3.2 nM
- koff (human CD64 [24]): 0.00023 s⁻¹
- kon (human CD64 [24]): 73000 M⁻¹ s⁻¹
- EC50 [25]: 0.13 nM
- Max FOB [25]: 7 fold over background
B1: AB1424/AB1612 F3′ TriNKET (bispecific antibody, human IgG1, kappa)
chain: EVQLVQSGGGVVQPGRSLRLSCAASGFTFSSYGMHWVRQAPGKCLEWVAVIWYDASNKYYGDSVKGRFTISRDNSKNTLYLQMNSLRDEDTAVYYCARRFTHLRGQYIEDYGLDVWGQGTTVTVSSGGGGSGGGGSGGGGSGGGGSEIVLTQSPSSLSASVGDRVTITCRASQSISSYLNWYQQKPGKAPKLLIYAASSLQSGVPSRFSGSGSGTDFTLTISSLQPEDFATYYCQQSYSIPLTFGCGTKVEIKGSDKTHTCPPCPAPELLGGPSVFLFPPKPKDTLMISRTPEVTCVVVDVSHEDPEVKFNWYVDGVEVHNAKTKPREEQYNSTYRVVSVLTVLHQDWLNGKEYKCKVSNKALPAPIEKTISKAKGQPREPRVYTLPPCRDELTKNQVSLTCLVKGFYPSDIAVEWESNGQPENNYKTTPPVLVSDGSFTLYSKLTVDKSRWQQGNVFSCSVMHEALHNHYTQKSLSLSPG
heavy: EVQLVESGGGLVKPGGSLRLSCAASGFTFSSYSMNWVRQAPGKGLEWVSSISSSSSYIYYADSVKGRFTISRDNAKNSLYLQMNSLRAEDTAVYYCARGAPIGAAAGWFDPWGQGTLVTVSSASTKGPSVFPLAPSSKSTSGGTAALGCLVKDYFPEPVTVSWNSGALTSGVHTFPAVLQSSGLYSLSSVVTVPSSSLGTQTYICNVNHKPSNTKVDKKVEPKSCDKTHTCPPCPAPELLGGPSVFLFPPKPKDTLMISRTPEVTCVVVDVSHEDPEVKFNWYVDGVEVHNAKTKPREEQYNSTYRVVSVLTVLHQDWLNGKEYKCKVSNKALPAPIEKTISKAKGQPREPQVCTLPPSRDELTENQVSLTCLVKGFYPSDIAVEWESNGQPENNYKTTPPVLDSDGSFFLYSWLTVDKSRWQQGNVFSCSVMHEALHNHYTQKSLSLSPG
light: DIQMTQSPSSVSASVGDRVTITCRASQGISSWLAWYQQKPGKAPKLLIYAASSLQSGVPSRFSGSGSGTDFTLTISSLQPEDFATYYCQQGVSFPRTFGGGTKVEIKRTVAAPSVFIFPPSDEQLKSGTASVVCLLNNFYPREAKVQWKVDNALQSGNSQESVTEQDSKDSTYSLSSTLTLSKADYEKHKVYACEVTHQGLSSPVTKSFNRGEC
notes: Chain S: anti-BAFF-R scFv-CH2-CH3; chain H: anti-NKG2D VH-CH1-CH2-CH3; chain L: anti-NKG2D VL-CL; also called AB1612-002
